± gives the standard deviation of the averaged measurements.
test system: ATP; assay: switch fluorescence ratio, 500 uM ATP over buffer (Cy3 cluster intensity, sum of 5 cycles each) (fold (ratio)); higher = stronger signal-on switching upon ATP binding; sequences stand for … in TCGTCGGCAGCGTCAGATGTGTATAAGAGACAGTTTTTTTTTTTTTTTTTTTTTTTTT…TC; details: aptamer strand: ATP DNA aptamer (quencher-CACCTGGGGGAGTATTGCGGAGGAAGG + anchor), 100 nM annealed; ATP concentration: 500 uM
Outline: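 After annealing to 100 nM quencher-labelled ATP aptamer, Cy3-labelled switching-strand clusters on a modified Illumina MiSeq flow-cell were imaged in selection buffer. A second image followed after 15 min with 500 uM ATP at 22 °C, and five such buffer/ATP cycles were done, each separated by NaOH stripping and re-annealing. The fluorescence ratio, averaged per switch-domain sequence, is summed target-cycle over summed buffer-cycle Cy3 intensity per cluster, with clusters outside 100-1000 RFU excluded.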
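Also: ATP exposure 15 min at 22 °C before imaging.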

Sequence | switch fluorescence ratio
ACATCGTCAT | 1.01 ± 0.02
ACATCGTTCT | 0.977 ± 0.018
ACATCTGACA | 1.06 ± 0.019
ACATCTTTTA | 1.03 ± 0.038
ACATGAGCGT | 0.996 ± 0.016
ACATGAGGTG | 1.18 ± 0.064
ACATGAGTCT | 1.02 ± 0.02
ACATGGAGAG | 0.985 ± 0.052
ACATGGATAA | 1.012 ± 0.0044
ACATGGGCT | 1.003 ± 0.0088
ACATGGGGGA | 1.02 ± 0.0082
ACATGGGTT | 1.04 ± 0.05
ACATGTCTGA | 0.9991 ± 0.0024
ACATGTGGAT | 0.996 ± 0.05
ACATGTTATT | 1.01 ± 0.035
ACATTACACA | 1.4 ± 0.25
ACATTAGTGG | 1.01 ± 0.01
ACATTCTATT | 1.01 ± 0.021
ACATTTTGGT | 0.995 ± 0.03
ACCAATTTTG | 1.01 ± 0.024
ACCACAATGT | 1.08 ± 0.055
ACCACCGTTG | 1.113 ± 0.0039
ACCACGGGGT | 1.02 ± 0.038
ACCAGATGCG | 1.01 ± 0.03
ACCAGCCTGG | 1.01 ± 0.025

Sequence | switch fluorescence ratio
ACCAGGGTCA | 1.05 ± 0.034
ACCAGTCTGG | 1.01 ± 0.017
ACCAGTGTCA | 1.02 ± 0.021
ACCATGGCTT | 0.976 ± 0.013
ACCATGGGAA | 1.04 ± 0.022
ACCATGTTTG | 1.012 ± 0.0072
ACCCAGGGCG | 1.44 ± 0.13
ACCCATCCAT | 1.02 ± 0.017
ACCCGCTTTT | 1.38 ± 0.31
ACCCGGCTCC | 1.23 ± 0.045
ACCCGTTGTG | 1.05 ± 0.03
ACCCTCGCAG | 1.748 ± 0.0058
ACCCTGGGGT | 2.14 ± 1.6
ACCGATACCC | 1.31 ± 0.022
ACCGCGGGGG | 1.03 ± 0.034
ACCGCGGTGT | 1.007 ± 0.0052
ACCGCGTATG | 1.03 ± 0.038
ACCGCTATGT | 1.57 ± 0.019
ACCGGAGTCA | 1.22 ± 0.058
ACCGGGAGAT | 0.994 ± 0.042
ACCGGGAGGT | 1.01 ± 0.049
ACCGGGGCAA | 1.13 ± 0.16
ACCGGGTTGC | 1.064 ± 0.008
ACCGGTACTC | 1.31 ± 0.047
ACCGGTGTAC | 1.77 ± 0.12

Sequence | switch fluorescence ratio
ACCGGTTATT | 1 ± 0.013
ACCGGTTGCC | 0.974 ± 0.058
ACCGGTTGGT | 0.976 ± 0.01
ACCGGTTTCT | 0.997 ± 0.037
ACCGTAGGTG | 1.03 ± 0.034
ACCGTGAAGG | 0.99924 ± 8.2e-05
ACCGTGTCAA | 1.01 ± 0.032
ACCGTGTCGT | 0.989 ± 0.095
ACCGTTAGGT | 0.951 ± 0.037
ACCTACGCGG | 1.97 ± 0.22
ACCTAGGACT | 1.024 ± 0.0027
ACCTAGTAAA | 0.987 ± 0.025
ACCTCACTTT | 1.303 ± 0.005
ACCTCATTAA | 1.03 ± 0.015
ACCTCCCGGG | 1.13 ± 0.17
ACCTCGGTCG | 0.983 ± 0.019
ACCTGATTAA | 1.01 ± 0.018
ACCTGGGCAG | 1.07 ± 0.015
ACCTTACTTA | 1.29 ± 0.029
ACCTTCCGGG | 2.37 ± 0.084
ACCTTGATTG | 1.01 ± 0.018
ACCTTGCACA | 1.252 ± 0.012
ACCTTTTTAG | 1.02 ± 0.015
ACCTTTTTAT | 1.02 ± 0.038
ACGAAAAAAG | 1.02 ± 0.012

Sequence | switch fluorescence ratio
ACGAAGGGCG | 1.019 ± 0.01
ACGAAGGGTC | 0.9941 ± 0.0098
ACGAATAAGG | 1.03 ± 0.021
ACGACAGATG | 0.961 ± 0.046
ACGACCATCG | 1.01 ± 0.02
ACGACGAAAC | 3.35 ± 1
ACGACGAAGG | 1.06 ± 0.083
ACGACTTAGG | 1.07 ± 0.017
ACGACTTTAG | 1.022 ± 0.0014
ACGAGAACGA | 1.05 ± 0.021
ACGAGATGGT | 1.023 ± 0.0069
ACGAGCGCGT | 1.02 ± 0.027
ACGAGGCCAG | 1.23 ± 0.032
ACGAGGCGTA | 1.04 ± 0.0046
ACGAGGCTTC | 1.294 ± 0.0082
ACGAGGGAGC | 1.05 ± 0.017
ACGAGGTTGG | 1.04 ± 0.084
ACGAGTGAAA | 1.02 ± 0.045
ACGAGTGGCG | 0.933 ± 0.021
ACGAGTTCCC | 1.01 ± 0.043
ACGAGTTTGG | 0.963 ± 0.036
ACGAGTTTTT | 1.01 ± 0.021
ACGATAGGGG | 1.03 ± 0.031
ACGATAGGTA | 1.06 ± 0.026
ACGATGAAGG | 1.01 ± 0.021

Source: the supplement of paper PMC10126150
